Experimental data taken from patent publication US20030199679A1.

Tests used:
[1] = target: recombinant human TNF-alpha (human) (UniProt P01375); test: Scatchard analysis, 125I-TNF and unlabelled TNF in solution, antibody taken out with anti-IgG agarose beads
[2] = target: recombinant human TNF-alpha (human) (UniProt P01375); test: standard assay of binding to human TNFα

Kd [1]: 140 pM
Kd [2]: 87 pM
Substance: CDP571 (CDR-grafted CB0010, grafted light chain gEU and grafted heavy chain 2hEUg) (antibody)
